A word on the Kd: it is the equilibrium constant for the complex coming apart. Low readings indicate higher affinity, high ones lower affinity.

The experiment has as its target Maporal virus (MPRLV) Gn/Gc virus-like particles (Maporal virus (MPRLV)). Nature of the experiment: BLI. A general note: In BLI a coated tip is dipped into the sample, and binding shifts an interference pattern.

Regarding “soluble PCDH1 EC1-EC2 (sEC1–2) (from UniProt Q08174-1 58-284) (domain or fragment)”, the Kd is 7 nM.

The record behind these values is paper PMC6556216.
